Results as given in the supplement of paper PMC9112550, “Optimization of the antimicrobial peptide Bac7 by deep mutational scanning” (BMC Biology, 2022).

Each sequence was assayed on Escherichia coli TOP10 (assay: shrunken log2 fold change of peptide-encoding DNA abundance (4.5 h post-induction vs induction); higher = less antimicrobial activity (less host growth inhibition)). Details: time post-induction: 4.5 h; library: site-saturation at positions 5, 18, 19, 20.
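Note: peptides expressed intracellularly from a pBAD plasmid library in pooled LB shake-flask culture, induced with 0.3% L-arabinose, DNA abundance read by NGS, three biological replicates, DESeq2 with apeglm shrinkage.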

| Sequence | shrunken log2 fold change |
| --- | --- |
| RRIRARPPRLPRPRPRPVLCPRP | 0.43 |
| RRIRARPPRLPRPRPRPVLVPRP | 0.0133 |
| RRIRARPPRLPRPRPRPVMRPRP | 0.292 |
| RRIRARPPRLPRPRPRPVMTPRP | -0.00766 |
| RRIRARPPRLPRPRPRPVNHPRP | -0.298 |
| RRIRARPPRLPRPRPRPVNKPRP | -0.117 |
| RRIRARPPRLPRPRPRPVNRPRP | 0.277 |
| RRIRARPPRLPRPRPRPVPKPRP | 0.791 |
| RRIRARPPRLPRPRPRPVPNPRP | -0.0263 |
| RRIRARPPRLPRPRPRPVQAPRP | 0.312 |
| RRIRARPPRLPRPRPRPVQDPRP | -0.0965 |
| RRIRARPPRLPRPRPRPVQYPRP | 0.0979 |
| RRIRARPPRLPRPRPRPVRLPRP | 0.371 |
| RRIRARPPRLPRPRPRPVRMPRP | 0.618 |
| RRIRARPPRLPRPRPRPVRVPRP | 0.781 |
| RRIRARPPRLPRPRPRPVSYPRP | -0.133 |
| RRIRARPPRLPRPRPRPVTHPRP | 0.105 |
| RRIRARPPRLPRPRPRPVTQPRP | 0.0996 |
| RRIRARPPRLPRPRPRPVVGPRP | 0.5 |
| RRIRARPPRLPRPRPRPWAHPRP | 0.0535 |
| RRIRARPPRLPRPRPRPWCDPRP | 0.00114 |
| RRIRARPPRLPRPRPRPWCHPRP | -0.0135 |
| RRIRARPPRLPRPRPRPWCWPRP | 0.583 |
| RRIRARPPRLPRPRPRPWEKPRP | -0.164 |
| RRIRARPPRLPRPRPRPWFVPRP | -0.0746 |

| Sequence | shrunken log2 fold change |
| --- | --- |
| RRIRARPPRLPRPRPRPWHFPRP | 0.24 |
| RRIRARPPRLPRPRPRPWHRPRP | 0.00868 |
| RRIRARPPRLPRPRPRPWILPRP | 0.223 |
| RRIRARPPRLPRPRPRPWIWPRP | 0.111 |
| RRIRARPPRLPRPRPRPWIYPRP | -0.647 |
| RRIRARPPRLPRPRPRPWLPPRP | 0.197 |
| RRIRARPPRLPRPRPRPWLVPRP | 0.0219 |
| RRIRARPPRLPRPRPRPWMQPRP | -0.152 |
| RRIRARPPRLPRPRPRPWNGPRP | 0.0566 |
| RRIRARPPRLPRPRPRPWNRPRP | -0.0462 |
| RRIRARPPRLPRPRPRPWQLPRP | -0.106 |
| RRIRARPPRLPRPRPRPWQSPRP | 0.183 |
| RRIRARPPRLPRPRPRPWQTPRP | 0.0127 |
| RRIRARPPRLPRPRPRPWSNPRP | 0.0711 |
| RRIRARPPRLPRPRPRPWTGPRP | 0.00192 |
| RRIRARPPRLPRPRPRPWVEPRP | 0.151 |
| RRIRARPPRLPRPRPRPWVHPRP | -0.162 |
| RRIRARPPRLPRPRPRPWVRPRP | -0.323 |
| RRIRARPPRLPRPRPRPWVWPRP | 0.596 |
| RRIRARPPRLPRPRPRPWWFPRP | 0.049 |
| RRIRARPPRLPRPRPRPWWPPRP | 0.292 |
| RRIRARPPRLPRPRPRPWWQPRP | 0.00618 |
| RRIRARPPRLPRPRPRPWYDPRP | -0.32 |
| RRIRARPPRLPRPRPRPYAEPRP | -0.104 |
| RRIRARPPRLPRPRPRPYDRPRP | -0.01 |

| Sequence | shrunken log2 fold change |
| --- | --- |
| RRIRARPPRLPRPRPRPYEDPRP | -0.117 |
| RRIRARPPRLPRPRPRPYFEPRP | -0.577 |
| RRIRARPPRLPRPRPRPYFGPRP | -0.327 |
| RRIRARPPRLPRPRPRPYFHPRP | -0.444 |
| RRIRARPPRLPRPRPRPYIHPRP | -0.681 |
| RRIRARPPRLPRPRPRPYISPRP | -0.132 |
| RRIRARPPRLPRPRPRPYKPPRP | -0.304 |
| RRIRARPPRLPRPRPRPYLAPRP | -0.594 |
| RRIRARPPRLPRPRPRPYLIPRP | -0.659 |
| RRIRARPPRLPRPRPRPYLQPRP | -0.276 |
| RRIRARPPRLPRPRPRPYMCPRP | -0.773 |
| RRIRARPPRLPRPRPRPYQRPRP | -0.229 |
| RRIRARPPRLPRPRPRPYQTPRP | 0.00502 |
| RRIRARPPRLPRPRPRPYRNPRP | -0.222 |
| RRIRARPPRLPRPRPRPYTMPRP | -0.301 |
| RRIRARPPRLPRPRPRPYVPPRP | -0.114 |
| RRIRARPPRLPRPRPRPYVQPRP | -0.471 |
| RRIRARPPRLPRPRPRPYWHPRP | -0.241 |
| RRIRARPPRLPRPRPRPYYAPRP | -0.501 |
| RRIRCRPPRLPRPRPRPAAIPRP | 0.0247 |
| RRIRCRPPRLPRPRPRPACIPRP | -0.186 |
| RRIRCRPPRLPRPRPRPADMPRP | -0.115 |
| RRIRCRPPRLPRPRPRPADTPRP | -0.0286 |
| RRIRCRPPRLPRPRPRPAFTPRP | 0.0636 |
| RRIRCRPPRLPRPRPRPAGKPRP | 0.0831 |
